Experimental data reported in PMC8355310, “Using cryo-EM to understand antimycobacterial resistance in the catalase-peroxidase (KatG) from Mycobacterium tuberculosis” (Structure(London, England:1993), 2021).
Positions count from the first letter of the chain named. Names may count otherwise.

Target: the molecule itself
Experiment: cryo-EM structure

B1: wild-type catalase-peroxidase KatG from Mycobacterium tuberculosis (enzyme)
chain: MPEQHPPITETTTGAASNGCPVVGHMKYPVEGGGNQDWWPNRLNLKVLHQNPAVADPMGAAFDYAAEVATIDVDALTRDIEEVMTTSQPWWPADYGHYGPLFIRMAWHAAGTYRIHDGRGGAGGGMQRFAPLNSWPDNASLDKARRLLWPVKKKYGKKLSWADLIVFAGNCALESMGFKTFGFGFGRVDQWEPDEVYWGKEATWLGDERYSGKRDLENPLAAVQMGLIYVNPEGPNGNPDPMAAAVDIRETFRRMAMNDVETAALIVGGHTFGKTHGAGPADLVGPEPEAAPLEQMGLGWKSSYGTGTGKDAITSGIEVVWTNTPTKWDNSFLEILYGYEWELTKSPAGAWQYTAKDGAGAGTIPDPFGGPGRSPTMLATDLSLRVDPIYERITRRWLEHPEELADEFAKAWYKLIHRDMGPVARYLGPLVPKQTLLWQDPVPAVSHDLVGEAEIASLKSQIRASGLTVSQLVSTAWAAASSFRGSDKRGGANGGRIRLQPQVGWEVNDPDGDLRKVIRTLEEIQESFNSAAPGNIKVSFADLVVLGGCAAIEKAAKAAGHNITVPFTPGRTDASQEQTDVESFAVLEPKADGFRNYLGKGNPLPAEYMLLDKANLLTLSAPEMTVLVGGLRVLGANYKRLPLGVFTEASESLTNDFFVNLLDMGITWEPSPADDGTYQGKDGSGKVKWTGSRVDLVFGSNSELRALVEVYGADDAQPKFVQDFVAAWDKVMNLDRFDVR
modifications: covalent linkage between Trp107, Tyr229 and Met255 (MYW catalytic triad); b-type heme bound in both protomers
notes: also called WT KatG; KatG^INH (with INH added); not shown: His-tag, N-terminal, cleaved
  binding result: binds

B2: KatG W107R variant from Mycobacterium tuberculosis (enzyme)
chain: B1 chain with W107R
notes: also called W107R KatG; not shown: His-tag, N-terminal, cleaved
  binding result: binds

B3: KatG T275P variant from Mycobacterium tuberculosis (enzyme)
chain: B1 chain with T275P
notes: Homodimer (C2 symmetry imposed); no ordered heme modelled in either protomer; also called T275P KatG; not shown: His-tag, N-terminal, cleaved
  binding result: binds
